Data taken from patent publication US12466859B2, “Desmoglein 2 (DSG2) binding proteins and uses therefor” (UNIVERSITY OF WASHINGTON THROUGH ITS CENTER FOR …, priority 2013, dated 2025).
Where a chain is given by its changes, count along the chain named. Names and notes keep the numbering of the source.

T1: DSG2 (Homo sapiens, UniProt Q14126)
T1 construct: Western blot using soluble recombinant DSG2 as a probe; purchased Leinco Technologies, Inc. (St. Louis, MO)
T1 sequence (Q14126 50-609 limits assumed): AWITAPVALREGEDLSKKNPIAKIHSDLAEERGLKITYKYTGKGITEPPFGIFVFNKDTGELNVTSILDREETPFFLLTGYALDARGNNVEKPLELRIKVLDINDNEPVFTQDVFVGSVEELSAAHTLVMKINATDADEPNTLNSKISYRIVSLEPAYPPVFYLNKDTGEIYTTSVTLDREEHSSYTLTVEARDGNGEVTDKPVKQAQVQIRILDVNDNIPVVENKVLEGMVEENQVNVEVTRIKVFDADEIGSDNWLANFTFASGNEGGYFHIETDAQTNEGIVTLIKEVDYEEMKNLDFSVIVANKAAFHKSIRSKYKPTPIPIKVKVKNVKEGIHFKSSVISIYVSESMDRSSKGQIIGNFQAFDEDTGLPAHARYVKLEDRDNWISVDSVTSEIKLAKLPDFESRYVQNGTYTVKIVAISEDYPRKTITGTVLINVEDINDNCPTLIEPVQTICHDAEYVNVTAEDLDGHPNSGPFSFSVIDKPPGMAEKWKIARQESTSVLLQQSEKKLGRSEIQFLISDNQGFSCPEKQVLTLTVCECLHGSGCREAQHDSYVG

B1: D261N (protein)
chain: MKVSALKEKVSALKEKVSALKEKVSALKEKVSALKEGSGGGSGGGSGGGSNSIALKNNTLWTGPKPEANCIIEYGKQNPDSKLTLILVKNGGIVNGYVTLMGASDYVNTLFKNKNVSINVELYFDATGHILPDSSSLKTDLELKYKQTADFSARGFMPSTTAYPFVLPNAGTHNENYIFGQCYYKASNGALFPLEVTVMLNKRLPDSRTSYVMTFLWSLNAGLAPETTQATLITSPFTFSYIREDD
B2: JO-4 (protein)
chain: B1 chain with Y177F, N188D

Assays:
[1] = system: Ad3-GFP virus; experiment: Competition of Ad3-GFP virus infection on HeLa cells; type: cell-based, adenovirus serotype 3; details: pre-incubation with knob; GFP expression
Protocol: FIG. 3A-3D. Competition of Ad3 virus by dimerized Ad3 knob mutants. FIG. 3A) Relative attachment of ^3H-labeled Ad3 virus in the presence of dimeric fiber knob mutants. 1.8×10^5 HeLa cells were incubated with Ad3 knob mutants at a concentration of 2.5 and 100 μg/ml on ice for 1 hour. Then 400 pfu/cell of ^3H-Ad3 virus was added on ice for another hour. Unbound virus particles were washed away. Attachment of virus particles incubated with PBS was taken as 100%. N=3. FIG. 3B1-3B2) Competition of Ad3-GFP virus infection on HeLa cells. 1.5×10^5 HeLa cells were seeded into 24 well plates. Cells were incubated with the Ad3 knob mutants at increasing concentrations for one hour at room temperature. 100 pfu/cell of Ad3-GFP virus were then added and GFP expression was analyzed 18 hours later by flow cytometry. FIG. 3B1) percentage of GFP positive cells. FIG. 3B2) mean fluorescence intensity. N=3. The standard deviation was less than 10%. FIG. 3C) Relative attachment of ^3H-labeled Ad3 virus in the presence of dimeric fiber knob mutants with multiple mutations. The study was performed as described in […]) The standard deviation was less than 10%. FIG. 3D) Competition of Ad3-GFP virus infection on HeLa cells. The study was performed as described in FIG. 3C) The standard deviation was less than 10%.
FIG. 9A1-9C. Analysis of dimeric Ad3 fiber knob mutants with increased affinity to DSG2. FIG. 9A1-9A2) Competition of Ad3-GFP virus infection on HeLa cells with dimeric affinity-enhanced mutant Y250F and JO-1 (dimeric wt Ad3 fiber knob). The experimental setting is as described for FIG. 3C. FIG. 9A1) percentage of GFP positive cells. FIG. 9A2) mean fluorescence intensity. N=3. The standard deviation was less than 10%. […] 100 pfu/cell of Ad3GFP virus were then added and GFP expression was analyzed 18 hours later. […]
Functional validation. […] Transduction was measured based on GFP expression (FIG. 3B). […] Dimeric Ad3 knob mutants with combined mutations were also analyzed for their ability to compete with Ad3 virus for attachment (FIG. 3C) and infection (FIG. 3D).

[2] = target: T1, DSG2; experiment: Surface plasmon resonance of Ad3 fiber knobs on immobilized DSG2; type: binding; details: affinity to DSG2
Protocol: FIG. 7A-7B. SPR analysis of non-dimerized Ad3 fiber knob interactions with DSG2. FIG. 7A) DSG2 was immobilized on sensorchips, and background was automatically subtracted from the control flow cell. The Ad3 fiber knobs (w/o dimerization domain: “noDD”) were injected for 3 minutes at 2.5 μg/ml followed by a 2.5 minutes dissociation period. FIG. 7B) Summary of SPR data. […] The extracted data are resumed in the table. Wt=Ad3 fiber knob without mutations FIG. 8A-8G. Electron microscopy and 3D structure of Ad3 fiber knob mutant JO-2.
Surface Plasmon Resonance: Acquisitions were done on a BIAcore 3000 instrument. HBS-N (GE-Healthcare, Pittsburgh, PA) supplemented with 2 mM CaCl2) was used as running buffer in all experiments at a flow rate of 5 [l/min. Immobilization on CM4 sensorchip (BIAcore) was performed using DSG2 at 10 μg/ml diluted in 10 mM Acetate buffer pH 4.5 injected for 10 minutes on ethyl(dimethylaminopropyl) carbodiimide (EDC)/N-Hydroxysuccinimide (NHS) activated flow-cell. A control flow-cell was activated by (EDC/NHS) and inactivated by ethanolamine. Different concentrations of Ad3 fiber knob proteins were injected for 3 minutes association followed by 2.5 minutes dissociation time, and the signal was automatically subtracted from the background of the ethanolamine deactivated EDC-NHS flow cell. Kinetic and affinity constants were calculated using the BIAeval software.

| Molecule | Inhibition of Ad3-GFP infection of HeLa cells, in words [1] | Kd [2] [nM] |
| --- | --- | --- |
| B1 | least reduced |  |
| B2 |  | 11.4 |
